# Laboratory results: patent publication US20200239541A1 (XYPHOS BIOSCIENCES, published 2020)
# Experiments:
# [1] = molecular target: T1, biotinylated human NKG2D (Example 1) (human, UniProt P26718 78-216); experiment: BLI (Octet), biotinylated human NKG2D coated, 100 nM analyte
# T1 construct: also called recombinant biotinylated NKG2D
# T1 sequence (looked up): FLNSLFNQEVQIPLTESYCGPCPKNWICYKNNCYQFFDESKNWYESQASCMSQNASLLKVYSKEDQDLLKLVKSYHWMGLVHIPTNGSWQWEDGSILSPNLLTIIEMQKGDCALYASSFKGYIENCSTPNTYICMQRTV
# [2] = molecular target: T2, human NKG2D-Fc (human, UniProt P26718 78-216); experiment: competition ELISA vs coated WT sMICA
# T2 construct: also called natural NKG2D-Fc; not shown: Fc
# T2 sequence (looked up): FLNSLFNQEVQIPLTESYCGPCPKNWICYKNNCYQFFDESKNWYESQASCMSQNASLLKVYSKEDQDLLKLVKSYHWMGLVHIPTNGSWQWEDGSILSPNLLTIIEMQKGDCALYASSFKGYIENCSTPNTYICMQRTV
# Text: (§1) To the NKG2DLs in the above example, we directly attached heterologous molecules such as a polypeptide to each of these 4 modified α1-α2 NKG2DLs using a linker peptide. Four His-tagged proteins (SEQ ID NOs.: 25-28) consisting of modified NKG2DLs with attached heterologous molecules were expressed in insect cells and purified to characterize their NKG2D binding affinities and kinetic binding parameters. Using a competitive binding ELISA, we determined the relative NKG2D binding affinities of the 4 modified α1-α2 variants.
# [3] = molecular target: T1, biotinylated human NKG2D (Example 1); experiment: BLI (Octet), Kd = kOFF/kON
# [4] = molecular target: T1, biotinylated human NKG2D (Example 1); experiment: BLI (Octet)
# [5] = molecular target: T3, NKG2D on the human NK cell line NKL (human, UniProt P26718 1-216); experiment: cell-based or functional assay
# T3 sequence (looked up): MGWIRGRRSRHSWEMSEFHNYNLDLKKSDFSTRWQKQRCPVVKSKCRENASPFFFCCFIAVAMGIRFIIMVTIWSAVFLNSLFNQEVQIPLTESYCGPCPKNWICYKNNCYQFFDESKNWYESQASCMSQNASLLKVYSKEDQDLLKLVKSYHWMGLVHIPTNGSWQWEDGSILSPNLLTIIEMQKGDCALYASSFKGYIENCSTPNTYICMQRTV
# [6] = molecular target: T2, human NKG2D-Fc; experiment: competition ELISA vs coated WT sMICA, 2 nM human NKG2D-Fc
# Text: as §1
# [7] = molecular target: T4, Fc-eNKG2D1 (Y199F) (human); experiment: BLI (Octet), Fc-eNKG2D captured on AHC tips, 20 nM MicAbody
# T4 construct: also called eNKG2D1 Y|F; not shown: human IgG1 Fc (without Fab domains)
# Method: (§2) Additional biophysical analysis of eNKG2D variant binding to ligands was also performed with Bio-Layer Interferometry (BLI) using the FortéBio Octet system (all FortéBio LLC, Fremont, Calif.). For these experiments human NKG2D ligands MICA-Fc, MICB-Fc, ULBP1-Fc, ULBP2-Fc, ULBP3-Fc, and ULBP4-Fc were purchased from R&D Systems, Inc. (Minneapolis, Minn.). Ligands in the MicAbody format were captured on anti-human IgG Fc capture (AHC) biosensor tips. After a baselines were established, tips were exposed to a titration series of Fc-eNKG2D fusion proteins ranging from 300 nM to 0.41 nM and association/dissociation kinetics monitored with all steps performed in PBS-BT. Subsequently, Fc-eNKG2D fusion proteins were captured onto AHC tips and MicAbodies were titrated to characterize binding kinetics.
# (§3) Binding analysis under the same conditions was then performed with Fc-eNKG2D fusion receptors as the capture agent, and the level of binding for each eNKG2D ranked as a percentage of the maximal binding response established by Fc-NKG2D.wt (Table 2).
# [8] = molecular target: T5, Fc-eNKG2D3 (Y152T) (human); experiment: as above
# T5 construct: also called eNKG2D3 T|Y
# Method: as §2, §3
# [9] = molecular target: T6, Fc-eNKG2D4 (Y152V) (human); experiment: as above
# T6 construct: also called eNKG2D4 V|Y
# Method: as §2, §3
# [10] = molecular target: T7, Fc-eNKG2D14 (Y152L) (human); experiment: as above
# T7 construct: also called eNKG2D14 L|Y
# Method: as §2, §3
# [11] = molecular target: T8, Fc-NKG2D.Y152A (human); experiment: as above
# T8 construct: also called eNKG2D A|Y; Fc-NKG2D.YA
# Method: as §2, §3
# [12] = molecular target: T9, Fc-eNKG2D2 (Y152S) (human); experiment: as above
# T9 construct: also called eNKG2D2 S|Y; not shown: human IgG1 Fc (without Fab domains)
# Method: as §2, §3
# [13] = molecular target: T10, Fc-eNKG2D15 (Y152F/Y199F) (human); experiment: ELISA, Fc-NKG2D coated, MicAbody titrated from 300 nM; ELISA, Fc-eNKG2D15 as capture agent, MicAbody titrated from 300 nM
# T10 construct: also called eNKG2D15 F|F
# Method: (§4) The binding affinities of α1-α2 variants to the extracellular domains of natural (wild-type) NKG2D and non-natural eNKG2D proteins were analyzed using a plate-based ELISA method. Each of the SEC fractionated natural Fc-NKG2D and non-natural Fc-eNKG2D fusions were coated overnight at 4° C. onto separate wells of Nunc Maxisorp 96 well plates (Thermo Fisher Scientific, Waltham, Mass.) using a coating concentration of 1 μg/mL in phosphate-buffered saline (PBS). The plates were washed three times in PBS/0.05% Tween-20 (PBS-T) at 20-22° C., and blocked with 0.5% bovine serum albumin in PBS (PBS-B) for 2 hours at 20-22° C. MicAbodies were titrated against the plate-bound natural or non-natural Fc-NKG2D fusions for 60 minutes at 20-22° C. in PBS/0.5% bovine serum albumin (BSA)/0.05% Tween-20 (PBS-BT), washed 3 times with PBS-T at 20-22° C., and the bound bispecific proteins detected using an HRP-conjugated anti-human kappa in PBS-BT (Abcam, Cambridge Mass.) and developed with 1-Step™ Ultra TMB ELISA Substrate Solution (Thermo Fisher Scientific, Waltham, Mass.).
# [14] = molecular target: T11, Fc-eNKG2D6 (Y152L/Y199F) (human); experiment: ELISA, Fc-eNKG2D coated, MicAbody titrated from 300 nM
# T11 construct: also called eNKG2D6 L|F
# Method: as §4
# [15] = molecular target: T12, Fc-eNKG2D13 (Y152E/Y199E) (human); experiment: as above
# T12 construct: also called eNKG2D13 E|E
# Method: as §4
# [16] = molecular target: T13, Fc-eNKG2D12 (Y152D/Y199D) (human); experiment: as above
# T13 construct: also called eNKG2D12 D|D
# Method: as §4
# [17] = molecular target: T5, Fc-eNKG2D3 (Y152T); experiment: ELISA, Fc-NKG2D coated, MicAbody titrated from 300 nM
# Method: as §4
# [18] = molecular target: T14, Fc-NKG2D.wt (human); experiment: as above
# T14 construct: also called NKG2D.wt Y|Y; natural Fc-NKG2D
# Method: as §4
# [19] = molecular target: T6, Fc-eNKG2D4 (Y152V); experiment: as above
# Method: as §4
# [20] = molecular target: T7, Fc-eNKG2D14 (Y152L); experiment: as above
# Method: as §4
# [21] = molecular target: T9, Fc-eNKG2D2 (Y152S); experiment: as above
# Method: as §4
# [22] = molecular target: T14, Fc-NKG2D.wt; experiment: ELISA (called Kd in the text)
# Method: as §4
# T6 sequence (chain, as listed by the source Y152V Y152V limits assumed): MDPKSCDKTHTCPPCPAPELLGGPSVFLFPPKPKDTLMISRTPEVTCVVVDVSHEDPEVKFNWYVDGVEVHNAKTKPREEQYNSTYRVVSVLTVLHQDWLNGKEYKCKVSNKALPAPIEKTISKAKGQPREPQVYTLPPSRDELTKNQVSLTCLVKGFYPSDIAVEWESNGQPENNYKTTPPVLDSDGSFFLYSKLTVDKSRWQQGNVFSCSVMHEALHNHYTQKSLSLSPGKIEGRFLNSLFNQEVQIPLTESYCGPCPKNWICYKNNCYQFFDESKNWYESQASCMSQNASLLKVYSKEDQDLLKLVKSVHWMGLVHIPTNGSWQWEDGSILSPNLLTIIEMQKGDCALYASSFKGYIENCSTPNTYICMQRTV
# T5 sequence (chain, as listed by the source Y152T Y152T limits assumed): as the sequence (chain, as listed by the source Y152V Y152V limits assumed) above, with V312T counted along it
# T9 sequence (chain, as listed by the source Y152S Y152S): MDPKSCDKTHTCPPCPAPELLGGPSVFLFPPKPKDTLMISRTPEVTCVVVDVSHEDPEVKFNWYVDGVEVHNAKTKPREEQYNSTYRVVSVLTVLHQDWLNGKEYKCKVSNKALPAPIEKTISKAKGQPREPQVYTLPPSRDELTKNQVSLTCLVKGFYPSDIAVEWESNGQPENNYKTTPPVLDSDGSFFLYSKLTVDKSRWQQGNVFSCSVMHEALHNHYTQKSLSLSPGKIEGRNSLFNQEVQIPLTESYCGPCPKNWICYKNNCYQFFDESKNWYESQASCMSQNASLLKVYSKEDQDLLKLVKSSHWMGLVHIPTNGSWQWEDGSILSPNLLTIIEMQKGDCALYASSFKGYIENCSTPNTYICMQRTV
# T7 sequence (chain, as listed by the source Y152L Y152L limits assumed): as the sequence (chain, as listed by the source Y152V Y152V limits assumed) above, with V312L counted along it
# T14 sequence (chain, as listed by the source limits assumed): as the sequence (chain, as listed by the source Y152V Y152V limits assumed) above, with V312Y counted along it
# T10 sequence (chain, as listed by the source Y152F Y199F Y152F Y199F limits assumed): as the sequence (chain, as listed by the source Y152V Y152V limits assumed) above, with V312F, Y359F counted along it
# T8 sequence (chain, as listed by the source Y152A Y152A limits assumed): as the sequence (chain, as listed by the source Y152V Y152V limits assumed) above, with V312A counted along it
# T4 sequence (chain, as listed by the source Y199F Y199F): as the sequence (chain, as listed by the source Y152S Y152S) above, with S310Y, Y357F counted along it
# T11 sequence (chain, as listed by the source Y152L Y199F Y152L Y199F limits assumed): as the sequence (chain, as listed by the source Y152V Y152V limits assumed) above, with V312L, Y359F counted along it
# T13 sequence (chain, as listed by the source Y152D Y199D Y152D Y199D limits assumed): as the sequence (chain, as listed by the source Y152V Y152V limits assumed) above, with V312D, Y359D counted along it
# T12 sequence (chain, as listed by the source Y152E Y199E Y152E Y199E limits assumed): as the sequence (chain, as listed by the source Y152V Y152V limits assumed) above, with V312E, Y359E counted along it
Binder,koff [1] [s⁻¹],kon [1] [M⁻¹ s⁻¹],fold better binding than WT NKG2DL [2] [fold],Kd [3] [nM],fold affinity increase relative to WT α1-α2 [4] [fold],fold reduction in off-rate relative to WT [4] [fold],NKL cell-mediated lysis of FGFR3-expressing P815 cells (calcein release) [5] [fold],IC50 [6] [nM],other results
"α1-α2 variant 16 (His-tagged, with attached heterologous polypeptide) (ligand) EPHSLRYNLTVLSWDGSVQSGFLTEVHLDGQPFLRCDRQKCRAKPQGQWAEDVLGNKTWDRETRDLTGWGKDLRMTLAHIKDQKEGLHSLQEIRVCEIHEDNSTRSSQHFYYDGELFLSQNLETLEWTMPQSSRAQTLAMNVRNFLKEDAMETDTHYHAMRADCLQELRRYLKSGVVLRRTVPPMVQVTRSEASGGSGDRVTITCRASQDVSTAVAWYQQKPGKAPKLLIYSASFLYSGVPSRFSGSGSGTDFTLTISSLQPEDFATYYCQQSYTTPPTFGQGTKVEIKGGSSRSSSSGGGGSGGGGEVQLVESGGGLVQPGGSLRLSCAASGFTFTSTGISWVRQAPGKGLEWVGRIYPTNGSTNYADSVKGRFTISADTSKNTAYLQMNSLRAEDTAVYYCARTYGIYDLYVDYTEYVMDYWGQGTLVTVSSGGSSRSSSSGGGGSGGGGDIQMTQSPSSLSASGGSGQITVTCRASGFYPWNITLSWRQDGVSLSHDTQQWGDVLPDGQGTYQTWVATRISQGEEQRFTCYMEHSGQHSTHPVPSGKGSHHHHHH",9e-05,200000,27,0.5,~30,18,~15,0.7,–
"α1-α2 variant 17 (His-tagged, with attached heterologous polypeptide) (ligand) EPHSLRYNLTVLSWDGSVQSGFLTEVHLDGQPFLRCDRQKCRAKPQGQWAEDVLGNKTWDRETRDLTLWGKDLRMTLAHIKDQKEGLHSLQEIRVCEIHEDNSTRSSQHFYYDGELFLSQNLETLEWTMPQSSRAQTLAMNVRNFLKEDAMETDTHYHAMRADCLQELRRYLKSGVVLRRTVPPMVQVTRSEASGGSGDRVTITCRASQDVSTAVAWYQQKPGKAPKLLIYSASFLYSGVPSRFSGSGSGTDFTLTISSLQPEDFATYYCQQSYTTPPTFGQGTKVEIKGGSSRSSSSGGGGSGGGGEVQLVESGGGLVQPGGSLRLSCAASGFTFTSTGISWVRQAPGKGLEWVGRIYPTNGSTNYADSVKGRFTISADTSKNTAYLQMNSLRAEDTAVYYCARTYGIYDLYVDYTEYVMDYWGQGTLVTVSSGGSSRSSSSGGGGSGGGGDIQMTQSPSSLSASGGSGQITVTCRASGFYPWNITLSWRQDGVSLSHDTQQWGDVLPDGQGTYQTWVATRISQGEEQRFTCYMEHSGQHSTHPVPSGKGSHHHHHH",7e-05,200000,32,0.4,~30,18,~15,0.6,–
"α1-α2 variant 18 (His-tagged, with attached heterologous polypeptide) (ligand) EPHSLRYNLTVLSWDGSVQPGFLTEVHLDGQPFLRCDRQKCRAKPQGQWAEDVLGNKTWDRETRDLTLWGKDLRMTLAHIKDQKEGLHSLQEIRVCEIHEDNSTRSSQHFYYDGELFLSQNLETLEWTMPQSSRAQTLAMNVRNFLKEDAMETDTHYHAMRADCLQELRRYLKSGVVLRRTVPPMVQVTRSEASGGSGDRVTITCRASQDVSTAVAWYQQKPGKAPKLLIYSASFLYSGVPSRFSGSGSGTDFTLTISSLQPEDFATYYCQQSYTTPPTFGQGTKVEIKGGSSRSSSSGGGGSGGGGEVQLVESGGGLVQPGGSLRLSCAASGFTFTSTGISWVRQAPGKGLEWVGRIYPTNGSTNYADSVKGRFTISADTSKNTAYLQMNSLRAEDTAVYYCARTYGIYDLYVDYTEYVMDYWGQGTLVTVSSGGSSRSSSSGGGGSGGGGDIQMTQSPSSLSASGGSGQITVTCRASGFYPWNITLSWRQDGVSLSHDTQQWGDVLPDGQGTYQTWVATRISQGEEQRFTCYMEHSGQHSTHPVPSGKGSHHHHHH",9e-05,230000,38,0.4,~30,18,~15,0.5,–
"trastuzumab-MICwed MicAbody (bispecific antibody, human IgG1, kappa) heavy: not shown light: not shown EPHSLRYNLTVLSWDGSVQSGFLTEVHLDGQPFLRCDRQKCRAKPQGQWAEDVLGNKTWDRETRDLTGWGKDLRMTLAHIKDQKEGLHSLQEIRVCEIHEDNSTRSSQHFYYDGELFLSQNLETKEWTMPQSSRAQTLAMNVRNFLKEDAMETDTHYHAMHADCLQELRRYLKSGVVLRRTV",–,–,–,–,–,–,–,–,percent of the maximal binding response of Fc-NKG2D.wt [7]: 100%; percent of the maximal binding response of Fc-NKG2D.wt [8]: 50%; percent of the maximal binding response of Fc-NKG2D.wt [9]: 50%; percent of the maximal binding response of Fc-NKG2D.wt [10]: 50%; percent of the maximal binding response of Fc-NKG2D.wt [11]: 50%; percent of the maximal binding response of Fc-NKG2D.wt [12]: 50%; EC50 [13]: 31.3 nM; binding result [14]: no binding (tested: 300 nM); binding result [15]: no binding (tested: 300 nM); binding result [16]: no binding (tested: 300 nM); EC50 [17]: 4.33 nM; EC50 [18]: 0.0067 nM; EC50 [19]: 4.84 nM; EC50 [20]: 9.39 nM; EC50 [21]: 4.16 nM; EC50 [22]: 0.007 nM
